Measured values from PMC10786891, “Massively parallel profiling of RNA-targeting CRISPR-Cas13d”.

Target: T1, EsCas13d, nuclease-dead (Eubacterium siraeum, UniProt B0MS50, R295A;H300A;R849A;H854A)
T1 sequence: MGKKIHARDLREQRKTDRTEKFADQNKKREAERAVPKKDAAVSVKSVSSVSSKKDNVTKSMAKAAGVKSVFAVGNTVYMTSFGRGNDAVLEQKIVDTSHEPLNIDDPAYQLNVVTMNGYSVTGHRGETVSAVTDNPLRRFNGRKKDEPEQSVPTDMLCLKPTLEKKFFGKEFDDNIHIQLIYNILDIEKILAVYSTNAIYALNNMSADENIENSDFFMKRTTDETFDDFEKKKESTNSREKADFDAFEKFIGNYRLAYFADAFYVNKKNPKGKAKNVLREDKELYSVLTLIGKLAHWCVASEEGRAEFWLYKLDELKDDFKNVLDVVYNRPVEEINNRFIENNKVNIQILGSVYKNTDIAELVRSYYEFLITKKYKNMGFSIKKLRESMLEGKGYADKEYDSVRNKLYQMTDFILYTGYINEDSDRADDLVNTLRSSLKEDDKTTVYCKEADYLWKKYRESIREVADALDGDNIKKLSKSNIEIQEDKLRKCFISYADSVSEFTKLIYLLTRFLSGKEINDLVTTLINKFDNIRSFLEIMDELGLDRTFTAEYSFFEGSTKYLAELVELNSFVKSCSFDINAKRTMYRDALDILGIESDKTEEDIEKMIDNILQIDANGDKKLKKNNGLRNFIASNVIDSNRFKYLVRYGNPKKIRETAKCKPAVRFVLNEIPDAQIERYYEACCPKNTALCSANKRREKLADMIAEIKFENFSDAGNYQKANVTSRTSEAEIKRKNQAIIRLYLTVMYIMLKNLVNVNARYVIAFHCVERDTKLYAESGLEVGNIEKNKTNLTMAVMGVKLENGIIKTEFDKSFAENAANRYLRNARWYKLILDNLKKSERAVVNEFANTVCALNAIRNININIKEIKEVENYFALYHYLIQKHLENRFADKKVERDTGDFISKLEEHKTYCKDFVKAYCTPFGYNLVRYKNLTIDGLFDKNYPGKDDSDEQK
Assay: crRNA (strand 1, pre-loaded); Mg2+; 40 mM Tris-HCl pH 7.5, 150 mM NaCl, 6 mM MgCl2, 1 mM DTT, 0.1% Tween-20, 0.2 mg/ml BSA; 25 C; 10 min per concentration, then washed
Details: tags: His6-TwinStrep-SUMO cleaved; N-terminal SNAP kept (SNAP-Surface 488); label: 3' end held by stalled T7 RNA polymerase

B1: target 1 del5,del9 (mixed)
RNA 1: CACCCGUGCAAAAAUGCAGGGGUCUAAAACUGAGCGGAUAACCUCUCUAUGG
RNA 2: GGGAAUGGAUCCACAUCUACGAAUUCGUACCAUAGAGAGGUUUCCCUCACCGAGAUCGGAAGAGCACACGU
B1 was tested, and the Kd was 15.9 ± 0.6 nM.

B2: target 1 C6G,G12A (mixed)
RNA 1: CACCCGUGCAAAAAUGCAGGGGUCUAAAACUGAGCGGAUAACCUCUCUAUGG
RNA 2: GGGAAUGGAUCCACAUCUACGAAUUCGUACCAUAGAGAGAUUAUCGGCUCACCGAGAUCGGAAGAGCACACGU
B2 gave a Kd of 10.8 ± 0.7 nM.

B3: target 1 insC 3' of 17,insA 3' of 13 (mixed)
RNA 1: CACCCGUGCAAAAAUGCAGGGGUCUAAAACUGAGCGGAUAACCUCUCUAUGG
RNA 2: GGGAAUGGAUCCACAUCUACGAAUUCGUACCAUAGCAGAGAGUUAUCCGCUCACCGAGAUCGGAAGAGCACACGU
Binder B3 has a Kd of 22.3 ± 2.4 nM.

B4: target 1 insA 3' of 10,insA 3' of 4 (mixed)
RNA 1: CACCCGUGCAAAAAUGCAGGGGUCUAAAACUGAGCGGAUAACCUCUCUAUGG
RNA 2: GGGAAUGGAUCCACAUCUACGAAUUCGUACCAUAGAGAGGUUAAUCCGCAUCACCGAGAUCGGAAGAGCACACGU
With B4 the Kd was 6.5 ± 0.4 nM.

B5: target 1 complement block 2-4 (mixed)
RNA 1: CACCCGUGCAAAAAUGCAGGGGUCUAAAACUGAGCGGAUAACCUCUCUAUGG
RNA 2: GGGAAUGGAUCCACAUCUACGAAUUCGUACCAUAGAGAGGUUAUCCGGAGACCGAGAUCGGAAGAGCACACGU
For B5, the Kd was 11 ± 0.5 nM.

B6: target 1 insC 3' of 9,insC 3' of 3 (mixed)
RNA 1: CACCCGUGCAAAAAUGCAGGGGUCUAAAACUGAGCGGAUAACCUCUCUAUGG
RNA 2: GGGAAUGGAUCCACAUCUACGAAUUCGUACCAUAGAGAGGUUACUCCGCUCCACCGAGAUCGGAAGAGCACACGU
With B6 the Kd was 11 ± 1 nM.

B7: target 1 insG 3' of 2,insU 3' of 2 (mixed)
RNA 1: CACCCGUGCAAAAAUGCAGGGGUCUAAAACUGAGCGGAUAACCUCUCUAUGG
RNA 2: GGGAAUGGAUCCACAUCUACGAAUUCGUACCAUAGAGAGGUUAUCCGCUCGUACCGAGAUCGGAAGAGCACACGU
Binder B7 has a Kd of 8.9 ± 0.9 nM.

B8: target 1 C2U,G17C (mixed)
RNA 1: CACCCGUGCAAAAAUGCAGGGGUCUAAAACUGAGCGGAUAACCUCUCUAUGG
RNA 2: GGGAAUGGAUCCACAUCUACGAAUUCGUACCAUACAGAGGUUAUCCGCUUACCGAGAUCGGAAGAGCACACGU
Work on B8 yielded a Kd of 42 ± 5 nM.

B9: target 1 insG 3' of 21,insA 3' of 5 (mixed)
RNA 1: CACCCGUGCAAAAAUGCAGGGGUCUAAAACUGAGCGGAUAACCUCUCUAUGG
RNA 2: GGGAAUGGAUCCACAUCUACGAAUUCGUACCGAUAGAGAGGUUAUCCGACUCACCGAGAUCGGAAGAGCACACGU
With B9 the Kd was 37 ± 9 nM.

B10: target 1 G5U,G17C (mixed)
RNA 1: CACCCGUGCAAAAAUGCAGGGGUCUAAAACUGAGCGGAUAACCUCUCUAUGG
RNA 2: GGGAAUGGAUCCACAUCUACGAAUUCGUACCAUACAGAGGUUAUCCUCUCACCGAGAUCGGAAGAGCACACGU
B10 gave a Kd of 80 ± 40 nM.

B11: target 1 del8,del13 (mixed)
RNA 1: CACCCGUGCAAAAAUGCAGGGGUCUAAAACUGAGCGGAUAACCUCUCUAUGG
RNA 2: GGGAAUGGAUCCACAUCUACGAAUUCGUACCAUAGAGAGUUACCGCUCACCGAGAUCGGAAGAGCACACGU
With B11 the Kd was 16.1 ± 0.8 nM.

B12: target 1 G15A,G17C (mixed)
RNA 1: CACCCGUGCAAAAAUGCAGGGGUCUAAAACUGAGCGGAUAACCUCUCUAUGG
RNA 2: GGGAAUGGAUCCACAUCUACGAAUUCGUACCAUACAAAGGUUAUCCGCUCACCGAGAUCGGAAGAGCACACGU
B12 gave a Kd of 62 ± 16 nM.

B13: target 1 A1U,A16G (mixed)
RNA 1: CACCCGUGCAAAAAUGCAGGGGUCUAAAACUGAGCGGAUAACCUCUCUAUGG
RNA 2: GGGAAUGGAUCCACAUCUACGAAUUCGUACCAUAGGGAGGUUAUCCGCUCUCCGAGAUCGGAAGAGCACACGU
Binder B13 has a Kd of 33 ± 7 nM.
